Results published in publication PMC10902388 (Nature Communications, 2024).
Numbering of substitutions follows the chain as printed. Names may count otherwise.

B1: MBP-16E6(4C4S) F76A (natural protein)
chain: MHQKRTAMFQDPQERPRKLPQLCTELQTTIHDIILECVYCKQQLLRREVYDFAFRDLCIVYRDGNPYAVCDKCLKAYSKISEYRHYSYSLYGTTLEQQYNKPLSDLLIRCINCQKPLSPEEKQRHLDKKQRFHNIRGRWTGRCMSCSRSSRTRRETQL
notes: Mutant of m2; source: E. coli BL21(DE3), purified (MBPTrap, SEC); not shown: MBP, N-terminal, kept
B2: MBP-16E6(4C4S) R62A (natural protein)
chain: B1 chain with R62A, A76F
notes: as for B1
B3: MBP-16E6(4C4S) S89A (natural protein)
chain: B1 chain with A76F, S89A
notes: as for B1
B4: MBP-16E6(4C4S) L57A (natural protein)
chain: B1 chain with L57A, A76F
B5: MBP-16E6(4C4S) R84E (natural protein)
chain: B1 chain with A76F, R84E
notes: as for B1
B6: MBP-16E6(4C4S) R84A (natural protein)
chain: B1 chain with A76F, R84A
notes: as for B1
B7: MBP-16E6(4C4S) Y88A (natural protein)
chain: B1 chain with A76F, Y88A
notes: as for B1
B8: MBP-16E6(4C4S) Y77A (natural protein)
chain: B1 chain with A76F, Y77A
notes: as for B1
B9: MBP-16E6(4C4S) Y86A (natural protein)
chain: B1 chain with A76F, Y86A
notes: as for B1

What follows are binders tested against T1, full-length human E6AP (C-terminal TEV-6xHis-Avi) (human, UniProt Q05086 1-875, biotin on the Avi tag (BirA biotin-protein ligase) in the SPR experiments) (assay: cell-based or functional assay). Details: not given.
T1 sequence (Q05086 whole entry): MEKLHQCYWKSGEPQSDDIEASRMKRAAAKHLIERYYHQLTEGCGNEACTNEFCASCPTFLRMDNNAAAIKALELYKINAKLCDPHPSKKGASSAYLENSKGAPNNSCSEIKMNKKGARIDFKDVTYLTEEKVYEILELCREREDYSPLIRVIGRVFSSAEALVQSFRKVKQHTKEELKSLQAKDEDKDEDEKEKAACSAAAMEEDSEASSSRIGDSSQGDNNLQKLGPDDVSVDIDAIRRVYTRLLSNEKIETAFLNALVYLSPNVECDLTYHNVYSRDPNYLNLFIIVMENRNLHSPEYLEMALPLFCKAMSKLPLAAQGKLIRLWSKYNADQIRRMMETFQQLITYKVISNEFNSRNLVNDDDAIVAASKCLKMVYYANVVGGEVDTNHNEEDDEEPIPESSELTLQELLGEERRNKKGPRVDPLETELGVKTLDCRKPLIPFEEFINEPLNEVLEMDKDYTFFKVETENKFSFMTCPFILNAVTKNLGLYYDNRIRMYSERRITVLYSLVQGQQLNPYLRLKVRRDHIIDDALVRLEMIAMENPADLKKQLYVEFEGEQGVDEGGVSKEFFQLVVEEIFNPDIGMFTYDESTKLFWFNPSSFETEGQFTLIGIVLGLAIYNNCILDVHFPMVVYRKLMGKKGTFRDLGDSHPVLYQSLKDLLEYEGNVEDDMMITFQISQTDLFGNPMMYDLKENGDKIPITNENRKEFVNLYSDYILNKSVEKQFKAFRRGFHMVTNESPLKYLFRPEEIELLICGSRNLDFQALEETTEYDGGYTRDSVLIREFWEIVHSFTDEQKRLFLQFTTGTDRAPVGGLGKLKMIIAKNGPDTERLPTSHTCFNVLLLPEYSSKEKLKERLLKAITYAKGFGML

Compared with B1, B3 is lower in “unmodified E6AP remaining at 30 min, E6AP autoubiquitination” value (from here on “unmodified E6AP remaining at 30 min”): 82% for the first, 33.1% for the second.

First: B7
Second: B8
The “unmodified E6AP remaining at 30 min” value of the first is lower: 21.2% for the first, 21.6% for the second.

B9 was tested, and the “unmodified E6AP remaining at 30 min” value was 56.5%.

Compared with B1, B3 is lower in “unmodified p53 remaining at 30 min, in vitro ubiquitination of full-length p53” value (from here on “unmodified p53 remaining at 30 min”): 59.5% for the first, 57.3% for the second.

Going from B7 to B8, the “unmodified p53 remaining at 30 min” value rises from 19.2% to 22.4%.

B9 was tested, and the “unmodified p53 remaining at 30 min” value was 44.2%.

First: B2
Second: B4
The “unmodified E6AP remaining after 30 min, E6AP autoubiquitination” value of the first is lower: 9.3% for the first, 45.6% for the second.

B5 and B6 are the same in “unmodified E6AP remaining after 30 min, E6AP autoubiquitination” value: 64.9% for the first, 64.9% for the second.

The binders below were run against T1, full-length human E6AP (C-terminal …) (assay: SPR). Details: both partners purified.

Going from B1 to B2, the Kd falls from 8.5 nM to 2.2 nM (3.9-fold). The second binds more tightly here.

First: B3
Second: B5
The Kd of the first is 110-fold lower: 1.71 nM for the first, 195 nM for the second. The first binds more tightly here.

Going from B6 to B7, the Kd falls from 34.4 nM to 5.4 nM (6.4-fold). The second binds more tightly here.

Going from B8 to B9, the Kd rises from 0.742 nM to 6.3 nM (8.5-fold). The first binds more tightly here.
